Patent publication US20260265379A1 (IMCHECK THERAPEUTICS, published 2026)

Columns and labels:
recombinant human PD-L1 = molecular target: T1, recombinant human PD-L1 (human, UniProt Q9NZQ7 19-239, limits assumed); experiment: SPR
T1 construct: Soluble antigen in SPR; also called rhPD-L1

recombinant human BTN3A1 = molecular target: T2, recombinant human BTN3A1 (human, UniProt O00481 30-254); experiment: SPR
T2 construct: Soluble form of the antigen used in SPR; also called rhBTN3A1; recombinant BTN3A1 protein

[1] = molecular target: T3, BTN3A1 at the surface of HEK-BTN3A1 cells (human, UniProt O00481 30-513); experiment: flow cytometry, HEK-BTN3A1 cells
T3 construct: HEK 293T BTN2A/BTN3A KO cells transduced with a BTN3A1 expressing vector

[2] = molecular target: T4, PD-L1 at the surface of transduced cells (UniProt Q9NZQ7 19-290, limits assumed); experiment: flow cytometry, CHO-PD-L1 cells
T4 construct: whole, on cells; CHO-PD-L1 cells in flow cytometry, Raji-PD-L1 cells in the reporter assay; also called CHO-PD-L1; Raji-PD-L1

[3] = molecular target: T4, PD-L1 at the surface of transduced cells; experiment: cell-based or functional assay

T4 sequence (Q9NZQ7 19-290 limits assumed): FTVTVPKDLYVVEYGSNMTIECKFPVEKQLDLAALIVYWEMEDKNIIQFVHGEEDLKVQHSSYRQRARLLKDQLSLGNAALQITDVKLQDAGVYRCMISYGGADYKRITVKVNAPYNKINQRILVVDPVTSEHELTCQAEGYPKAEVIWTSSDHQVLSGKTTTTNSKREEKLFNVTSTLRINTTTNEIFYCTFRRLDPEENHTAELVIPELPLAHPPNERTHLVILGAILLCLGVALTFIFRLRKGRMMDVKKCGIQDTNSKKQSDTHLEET
T3 sequence (O00481 30-513 limits assumed): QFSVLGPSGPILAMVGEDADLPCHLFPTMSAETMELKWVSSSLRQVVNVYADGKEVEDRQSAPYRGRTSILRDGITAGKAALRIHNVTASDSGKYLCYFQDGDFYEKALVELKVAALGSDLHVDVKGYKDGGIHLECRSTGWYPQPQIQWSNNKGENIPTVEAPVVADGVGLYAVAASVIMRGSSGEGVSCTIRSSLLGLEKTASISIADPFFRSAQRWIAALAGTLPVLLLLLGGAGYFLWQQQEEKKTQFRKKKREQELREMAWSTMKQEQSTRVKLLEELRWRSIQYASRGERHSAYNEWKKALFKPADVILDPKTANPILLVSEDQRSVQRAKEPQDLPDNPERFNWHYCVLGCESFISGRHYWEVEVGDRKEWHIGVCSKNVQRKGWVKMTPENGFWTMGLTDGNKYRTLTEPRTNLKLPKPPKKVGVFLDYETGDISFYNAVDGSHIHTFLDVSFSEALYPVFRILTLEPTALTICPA
T1 sequence (Q9NZQ7 19-239 limits assumed): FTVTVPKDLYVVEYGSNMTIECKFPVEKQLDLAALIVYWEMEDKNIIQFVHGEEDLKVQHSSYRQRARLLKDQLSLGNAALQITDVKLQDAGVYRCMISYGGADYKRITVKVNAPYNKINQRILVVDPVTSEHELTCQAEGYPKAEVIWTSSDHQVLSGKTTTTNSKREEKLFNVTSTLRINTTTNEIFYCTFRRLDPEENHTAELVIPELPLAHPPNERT
T2 sequence (O00481 30-254 limits assumed): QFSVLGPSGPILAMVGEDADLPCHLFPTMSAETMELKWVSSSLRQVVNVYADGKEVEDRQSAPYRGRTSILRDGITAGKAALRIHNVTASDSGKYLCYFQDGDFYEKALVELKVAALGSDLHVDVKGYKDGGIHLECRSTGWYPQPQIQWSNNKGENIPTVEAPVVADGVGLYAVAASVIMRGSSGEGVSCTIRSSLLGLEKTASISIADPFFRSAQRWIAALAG

Kd (recombinant human PD-L1)	Kd (recombinant human BTN3A1)	MFI at 10 nM [1]	MFI at 100 nM [1]	MFI at 10 nM [2]	MFI at 100 nM [2]	Jurkat-PD-1 activation at 10 nM [3]	Jurkat-PD-1 activation at 100 nM [3]	Binder
0.053 nM	0.101 nM	1.1e+06 MFI	1.67e+06 MFI	1.14e+06 MFI	1.3e+06 MFI			bsAb041 (bispecific antibody, one Fab arm anti-PD-L1, two scFv anti-BTN3A; not shown: IgG1 CH1-hinge-CH2-CH3; CH2-CH3 (Fc)) heavy (part 1 of 2): EVQLVESGGGLVQPGGSLRLSCAASGFTFSRYWMSWVRQAPGKGLEWVANIKQDGSEKYYVDSVKGRFTISRDNAKNSLYLQMNSLRAEDTAVYYCAREGGWFGELAFDYWGQGTLVTVSS heavy (part 2 of 2): GGGGSGGGGSGGGGSGGGGSDIQMTQSPSSLSASVGDRVTITCHASQNINVWLSWYQQKPGKAPKLLIYKASNLHTGVPSRFTGSGSGTDFTFTISSLQPEDIATYYCQQGQTYPYTFGQGTKLEIKGGGGSGGGGSGGGGSGGGGSQVQLVQSGAEVKKPGASVKLSCKASGYIFTRYYMYWVKQRPGQGLEWIGEINPNNGGTKFNEKFKNRATLTVDKSISTAYMELSRLRSDDTAVYYCSREDDYDGTPFAMDYWGQGTLVTVSS heavy: GGGGSGGGGSGGGGSGGGGSDIQMTQSPSSLSASVGDRVTITCHASQNINVWLSWYQQKPGKAPKLLIYKASNLHTGVPSRFTGSGSGTDFTFTISSLQPEDIATYYCQQGQTYPYTFGQGTKLEIKGGGGSGGGGSGGGGSGGGGSQVQLVQSGAEVKKPGASVKLSCKASGYIFTRYYMYWVKQRPGQGLEWIGEINPNNGGTKFNEKFKNRATLTVDKSISTAYMELSRLRSDDTAVYYCSREDDYDGTPFAMDYWGQGTLVTVSS light: EIVLTQSPGTLSLSPGERATLSCRASQRVSSSYLAWYQQKPGQAPRLLIYDASSRATGIPDRFSGSGSGTDFTLTISRLEPEDFAVYYCQQYGSLPWTFGQGTKVEIKRTVAAPSVFIFPPSDEQLKSGTASVVCLLNNFYPREAKVQWKVDNALQSGNSQESVTEQDSKDSTYSLSSTLTLSKADYEKHKVYACEVTHQGLSSPVTKSFNRGEC
0.076 nM	0.1 nM	635000 MFI	1.18e+06 MFI	1.02e+06 MFI	1.16e+06 MFI			bsAb069 (bispecific antibody, not shown: IgG1 CH1-hinge-CH2-CH3; CH2-CH3 (Fc)) heavy 1: EVQLVESGGGLVQPGGSLRLSCAASGFTFSRYWMSWVRQAPGKGLEWVANIKQDGSEKYYVDSVKGRFTISRDNAKNSLYLQMNSLRAEDTAVYYCAREGGWFGELAFDYWGQGTLVTVSS heavy 2: DIQMTQSPSSLSASVGDRVTITCHASQNINVWLSWYQQKPGKAPKLLIYKASNLHTGVPSRFTGSGSGTDFTFTISSLQPEDIATYYCQQGQTYPYTFGQGTKLEIKGGGGSGGGGSGGGGSGGGGSQVQLVQSGAEVKKPGASVKLSCKASGYIFTRYYMYWVKQRPGQGLEWIGEINPNNGGTKFNEKFKNRATLTVDKSISTAYMELSRLRSDDTAVYYCSREDDYDGTPFAMDYWGQGTLVTVSSGGGGSGGGGSGGGGSGGGGS light: EIVLTQSPGTLSLSPGERATLSCRASQRVSSSYLAWYQQKPGQAPRLLIYDASSRATGIPDRFSGSGSGTDFTLTISRLEPEDFAVYYCQQYGSLPWTFGQGTKVEIKRTVAAPSVFIFPPSDEQLKSGTASVVCLLNNFYPREAKVQWKVDNALQSGNSQESVTEQDSKDSTYSLSSTLTLSKADYEKHKVYACEVTHQGLSSPVTKSFNRGECGGGGSGGGGSGGGGSGGGGSQVQLVQSGAEVKKPGASVKLSCKASGYIFTRYYMYWVKQRPGQGLEWIGEINPNNGGTKFNEKFKNRATLTVDKSISTAYMELSRLRSDDTAVYYCSREDDYDGTPFAMDYWGQGTLVTVSSGGGGSGGGGSGGGGSGGGGSDIQMTQSPSSLSASVGDRVTITCHASQNINVWLSWYQQKPGKAPKLLIYKASNLHTGVPSRFTGSGSGTDFTFTISSLQPEDIATYYCQQGQTYPYTFGQGTKLEIK
0.079 nM	0.074 nM	790000 MFI	1e+06 MFI	1.05e+06 MFI	1.2e+06 MFI			bsAb070 (bispecific antibody, not shown: IgG1 CH1-hinge-CH2-CH3; CH2-CH3 (Fc)) heavy 1: EVQLVESGGGLVQPGGSLRLSCAASGFTFSRYWMSWVRQAPGKGLEWVANIKQDGSEKYYVDSVKGRFTISRDNAKNSLYLQMNSLRAEDTAVYYCAREGGWFGELAFDYWGQGTLVTVSS heavy 2: QVQLVQSGAEVKKPGASVKLSCKASGYIFTRYYMYWVKQRPGQGLEWIGEINPNNGGTKFNEKFKNRATLTVDKSISTAYMELSRLRSDDTAVYYCSREDDYDGTPFAMDYWGQGTLVTVSSGGGGSGGGGSGGGGSGGGGSDIQMTQSPSSLSASVGDRVTITCHASQNINVWLSWYQQKPGKAPKLLIYKASNLHTGVPSRFTGSGSGTDFTFTISSLQPEDIATYYCQQGQTYPYTFGQGTKLEIKGGGGSGGGGSGGGGSGGGGS light: EIVLTQSPGTLSLSPGERATLSCRASQRVSSSYLAWYQQKPGQAPRLLIYDASSRATGIPDRFSGSGSGTDFTLTISRLEPEDFAVYYCQQYGSLPWTFGQGTKVEIKRTVAAPSVFIFPPSDEQLKSGTASVVCLLNNFYPREAKVQWKVDNALQSGNSQESVTEQDSKDSTYSLSSTLTLSKADYEKHKVYACEVTHQGLSSPVTKSFNRGECGGGGSGGGGSGGGGSGGGGSDIQMTQSPSSLSASVGDRVTITCHASQNINVWLSWYQQKPGKAPKLLIYKASNLHTGVPSRFTGSGSGTDFTFTISSLQPEDIATYYCQQGQTYPYTFGQGTKLEIKGGGGSGGGGSGGGGSGGGGSQVQLVQSGAEVKKPGASVKLSCKASGYIFTRYYMYWVKQRPGQGLEWIGEINPNNGGTKFNEKFKNRATLTVDKSISTAYMELSRLRSDDTAVYYCSREDDYDGTPFAMDYWGQGTLVTVSS
0.033 nM	0.126 nM	424000 MFI	1.06e+06 MFI	664000 MFI	690000 MFI			bsAb054 (bispecific antibody, IgG anti-PD-L1, one scFv anti-BTN3A; not shown: IgG1 CH1-hinge-CH2-CH3) heavy (part 1 of 2): EVQLVESGGGLVQPGGSLRLSCAASGFTFSRYWMSWVRQAPGKGLEWVANIKQDGSEKYYVDSVKGRFTISRDNAKNSLYLQMNSLRAEDTAVYYCAREGGWFGELAFDYWGQGTLVTVSS heavy (part 2 of 2): GGGGSGGGGSGGGGSGGGGSQVQLVQSGAEVKKPGASVKLSCKASGYIFTRYYMYWVKQRPGQGLEWIGEINPNNGGTKFNEKFKNRATLTVDKSISTAYMELSRLRSDDTAVYYCSREDDYDGTPFAMDYWGQGTLVTVSSGGGGSGGGGSGGGGSGGGGSDIQMTQSPSSLSASVGDRVTITCHASQNINVWLSWYQQKPGKAPKLLIYKASNLHTGVPSRFTGSGSGTDFTFTISSLQPEDIATYYCQQGQTYPYTFGQGTKLEIK heavy: EVQLVESGGGLVQPGGSLRLSCAASGFTFSRYWMSWVRQAPGKGLEWVANIKQDGSEKYYVDSVKGRFTISRDNAKNSLYLQMNSLRAEDTAVYYCAREGGWFGELAFDYWGQGTLVTVSS light: EIVLTQSPGTLSLSPGERATLSCRASQRVSSSYLAWYQQKPGQAPRLLIYDASSRATGIPDRFSGSGSGTDFTLTISRLEPEDFAVYYCQQYGSLPWTFGQGTKVEIKRTVAAPSVFIFPPSDEQLKSGTASVVCLLNNFYPREAKVQWKVDNALQSGNSQESVTEQDSKDSTYSLSSTLTLSKADYEKHKVYACEVTHQGLSSPVTKSFNRGEC
0.043 nM	0.504 nM	512000 MFI	1.14e+06 MFI	682000 MFI	722000 MFI	6.4 fold-change to medium	2.3 fold-change to medium	bsAb011 (bispecific antibody, IgG anti-BTN3A, scFv anti-PD-L1) heavy: QVQLVQSGAEVKKPGASVKLSCKASGYIFTRYYMYWVKQRPGQGLEWIGEINPNNGGTKFNEKFKNRATLTVDKSISTAYMELSRLRSDDTAVYYCSREDDYDGTPFAMDYWGQGTLVTVSSASTKGPSVFPLAPSSKSTSGGTAALGCLVKDYFPEPVTVSWNSGALTSGVHTFPAVLQSSGLYSLSSVVTVPSSSLGTQTYICNVNHKPSNTKVDKRVEPKSCDKTHTCPPCPAPEFEGGPSVFLFPPKPKDTLMISRTPEVTCVVVDVSHEDPEVKFNWYVDGVEVHNAKTKPREEQYNSTYRVVSVLTVLHQDWLNGKEYKCKVSNKALPASIEKTISKAKGQPREPQVYTLPPSREEMTKNQVSLTCLVKGFYPSDIAVEWESNGQPENNYKTTPPVLDSDGSFFLYSKLTVDKSRWQQGNVFSCSVMHEALHNHYTQKSLSLSPG light: not shown
0.097 nM	0.068 nM	525000 MFI	1.03e+06 MFI	973000 MFI	1.28e+06 MFI	5 fold-change to medium	7.9 fold-change to medium	bsAb035 (bispecific antibody, IgG anti-BTN3A, one scFv anti-PD-L1; not shown: IgG1 CH1-hinge-CH2-CH3) heavy (part 1 of 2): QVQLVQSGAEVKKPGASVKLSCKASGYIFTRYYMYWVKQRPGQGLEWIGEINPNNGGTKFNEKFKNRATLTVDKSISTAYMELSRLRSDDTAVYYCSREDDYDGTPFAMDYWGQGTLVTVSS heavy (part 2 of 2): GGGGSGGGGSGGGGSGGGGSEVQLVESGGGLVQPGGSLRLSCAASGFTFSRYWMSWVRQAPGKGLEWVANIKQDGSEKYYVDSVKGRFTISRDNAKNSLYLQMNSLRAEDTAVYYCAREGGWFGELAFDYWGQGTLVTVSSGGGGSGGGGSGGGGSGGGGSEIVLTQSPGTLSLSPGERATLSCRASQRVSSSYLAWYQQKPGQAPRLLIYDASSRATGIPDRFSGSGSGTDFTLTISRLEPEDFAVYYCQQYGSLPWTFGQGTKVEIK heavy: QVQLVQSGAEVKKPGASVKLSCKASGYIFTRYYMYWVKQRPGQGLEWIGEINPNNGGTKFNEKFKNRATLTVDKSISTAYMELSRLRSDDTAVYYCSREDDYDGTPFAMDYWGQGTLVTVSS light: not shown
0.066 nM	0.065 nM	634000 MFI	1.23e+06 MFI	1.04e+06 MFI	1.25e+06 MFI	6 fold-change to medium	7.5 fold-change to medium	bsAb040 (bispecific antibody, IgG anti-BTN3A, one scFv anti-PD-L1; not shown: IgG1 CH1-hinge-CH2-CH3) heavy (part 1 of 2): QVQLVQSGAEVKKPGASVKLSCKASGYIFTRYYMYWVKQRPGQGLEWIGEINPNNGGTKFNEKFKNRATLTVDKSISTAYMELSRLRSDDTAVYYCSREDDYDGTPFAMDYWGQGTLVTVSS heavy (part 2 of 2): GGGGSGGGGSGGGGSGGGGSEIVLTQSPGTLSLSPGERATLSCRASQRVSSSYLAWYQQKPGQAPRLLIYDASSRATGIPDRFSGSGSGTDFTLTISRLEPEDFAVYYCQQYGSLPWTFGQGTKVEIKGGGGSGGGGSGGGGSGGGGSEVQLVESGGGLVQPGGSLRLSCAASGFTFSRYWMSWVRQAPGKGLEWVANIKQDGSEKYYVDSVKGRFTISRDNAKNSLYLQMNSLRAEDTAVYYCAREGGWFGELAFDYWGQGTLVTVSS heavy: QVQLVQSGAEVKKPGASVKLSCKASGYIFTRYYMYWVKQRPGQGLEWIGEINPNNGGTKFNEKFKNRATLTVDKSISTAYMELSRLRSDDTAVYYCSREDDYDGTPFAMDYWGQGTLVTVSS light: not shown
